{"source": "paper PMC3117017", "biological_target": "Nluc2-H2AX (N-terminal fragment of firefly luciferase 2 fused to the N-terminus of histone H2AX) (UniProt P16104)", "experiment": "split reporter"}
{"substance": "MDC1 BRCT domain fused to the C-terminal fragment of firefly luciferase 2 (Cluc) (domain or fragment)", "values": [{"measurement": "reporter activity, fold above background (within 3 hour of 6 Gy x-rays)", "value": 5, "unit": "fold"}]}
